{"source": "patent US20040110688", "key": {"[1]": {"molecular_target": "T1, factor VIIIa, P00451", "T1 chain": "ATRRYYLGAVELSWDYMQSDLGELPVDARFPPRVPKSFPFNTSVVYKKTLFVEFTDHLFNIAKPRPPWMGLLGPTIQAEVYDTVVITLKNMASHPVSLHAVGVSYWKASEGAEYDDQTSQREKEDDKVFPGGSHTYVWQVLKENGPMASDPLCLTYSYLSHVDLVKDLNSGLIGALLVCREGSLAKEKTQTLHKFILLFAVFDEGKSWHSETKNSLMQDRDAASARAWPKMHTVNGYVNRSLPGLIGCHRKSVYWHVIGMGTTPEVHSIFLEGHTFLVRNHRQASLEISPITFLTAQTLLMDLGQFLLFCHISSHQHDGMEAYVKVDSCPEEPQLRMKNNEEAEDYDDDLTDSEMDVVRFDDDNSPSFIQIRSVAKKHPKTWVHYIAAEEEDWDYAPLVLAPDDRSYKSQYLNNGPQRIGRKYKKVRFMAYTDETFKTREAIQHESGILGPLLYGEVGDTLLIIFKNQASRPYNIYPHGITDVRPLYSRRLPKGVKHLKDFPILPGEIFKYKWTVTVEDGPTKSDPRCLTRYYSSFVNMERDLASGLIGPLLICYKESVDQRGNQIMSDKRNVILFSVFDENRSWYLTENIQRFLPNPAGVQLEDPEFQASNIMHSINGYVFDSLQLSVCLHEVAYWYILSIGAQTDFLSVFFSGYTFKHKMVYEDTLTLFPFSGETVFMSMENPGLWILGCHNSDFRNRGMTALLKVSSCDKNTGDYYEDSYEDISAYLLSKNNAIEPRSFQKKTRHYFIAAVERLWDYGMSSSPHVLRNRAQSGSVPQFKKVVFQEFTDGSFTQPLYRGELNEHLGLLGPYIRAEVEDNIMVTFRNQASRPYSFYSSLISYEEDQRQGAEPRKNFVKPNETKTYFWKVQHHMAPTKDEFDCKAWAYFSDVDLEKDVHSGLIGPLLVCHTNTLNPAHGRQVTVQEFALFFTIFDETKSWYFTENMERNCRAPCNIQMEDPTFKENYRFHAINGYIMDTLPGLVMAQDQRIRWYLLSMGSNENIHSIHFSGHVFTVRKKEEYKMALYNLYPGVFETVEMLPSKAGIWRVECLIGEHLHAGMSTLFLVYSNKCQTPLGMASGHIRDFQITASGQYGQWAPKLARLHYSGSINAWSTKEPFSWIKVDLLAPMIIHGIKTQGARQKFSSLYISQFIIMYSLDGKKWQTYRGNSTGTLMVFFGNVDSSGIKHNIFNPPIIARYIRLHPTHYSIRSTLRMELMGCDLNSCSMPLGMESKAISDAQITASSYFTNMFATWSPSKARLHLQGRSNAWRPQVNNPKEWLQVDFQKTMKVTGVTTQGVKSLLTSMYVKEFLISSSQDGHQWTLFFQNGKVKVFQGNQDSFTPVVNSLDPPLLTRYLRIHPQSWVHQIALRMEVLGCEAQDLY"}, "[2]": {"molecular_target": "factor X, P00742"}}}
{"protein": "IXahelixVII (protein) chain 1: YNSGKLEEFVQGNLERECMEEKCSFEEAREVFENTERTTEFWKQYVDGDQCESNPCLNGGSCKDDINSYECWCPFGFEGKNCELDVTCNIKNGRCEQFCKNSADNKVVCSCTEGYRLAENQKSCEPAVPFPCGRVSVSQTSKLTR chain 2: VVGGEDAKPGQFPWQVVLNGKVDAFCGGSIVNEKWIVTAAHCVETGVKITVVAGEHNIEETEHTEQKRNVIRIIPHHNYNAAINKYNHDIALLELDEPLVLNSYVTPICIADKEYTNIFLKFGSGYVSGWGRVFHKGRSALVLQYLRVPRLMTQDCLQSTKFTIYNNMFCAGFHEGGRDSCQGDSGGPHVTEVEGTSFLTGIISWGEECAMKGKYGIYTKVSRYVNWIKEKTKLT", "values": [{"measurement": "X-activation rate, PL-minus system (14 nM VIIIa, 400 nM X)", "setting": "[1]", "value": "NM"}, {"measurement": "X-activation rate, PL-plus system (70 pM VIIIa, 0.5 nM IXa, 15 nM X)", "setting": "[1]", "value": "NM"}, {"measurement": "rate of factor X activation with phospholipid, factor VIIIa increased from 70 pM to 14 nM", "setting": "[1]", "value": "for IXahelixVII it was still not measurable"}, {"measurement": "rate of factor Xa generation, Ca2+ and phospholipid, no VIIIa (20 nM IXa, 100 nM X)", "setting": "[2]", "value": "The rate of factor Xa generation in each case was 0.1 nM/min"}]}
